Measured values taken from the Human Domainome abundance scans (Beltran et al. 2025).
± gives the uncertainty stated by the source.

B1: Ankyrin-1, residues 1405 to 1484; numbered along this chain, P16157 (parent)
chain: MKMAVISEHLGLSWAELARELQFSVEDINRIRVENPNSLLEQSVALLNLWVIREGQNANMENLYTALQSIDRGEIVNMLE

Variants of: B1
Test: abundance fitness (aPCA) (normalised: wild type 0, dead -1); higher = more abundant; growth selection in yeast, the domain comes from the species named
Details: Homo sapiens

Row | Variant | abundance fitness
1 | MKMAVISEHLGLSWAELARELQFSCEDINRIRVENPNSLLEQSVALLNLWVIREGQNANMENLYTALQSIDRGEIVNMLE [V25C] | -0.161 ± 0.083
2 | MKMAVISEHLGLSWAELARELQFSVEDINRIRVENPNSLLEQSVALLNLWVIREGQNANMENLVTALQSIDRGEIVNMLE [Y64V] | -0.225 ± 0.061
3 | MKMAVISEHLGLSWAELARELQFSVEDINRIRVENPNSLLEQSVALLNLWVIREGQNANMENLTTALQSIDRGEIVNMLE [Y64T] | -0.049 ± 0.1
4 | MKMAVISEHLGLSWAELARELQFSVEDINRIRVENHNSLLEQSVALLNLWVIREGQNANMENLYTALQSIDRGEIVNMLE [P36H] | -0.31 ± 0.12
5 | MKMAVISEHLGLSWAELARELQFSVEDINRIRVENYNSLLEQSVALLNLWVIREGQNANMENLYTALQSIDRGEIVNMLE [P36Y] | -0.565 ± 0.25
6 | MKMAVISEHLGLSWAELARCLQFSVEDINRIRVENPNSLLEQSVALLNLWVIREGQNANMENLYTALQSIDRGEIVNMLE [E20C] | -0.125 ± 0.077
7 | MKMAVISEHLGLSWAELARELQFSVEDINRIRVEYPNSLLEQSVALLNLWVIREGQNANMENLYTALQSIDRGEIVNMLE [N35Y] | -0.42 ± 0.3
8 | MKMAVISEHLGLSWAELARELQFSVEDINRIRVEQPNSLLEQSVALLNLWVIREGQNANMENLYTALQSIDRGEIVNMLE [N35Q] | -0.247 ± 0.16
9 | MKMAVISEHLGLSWAELARELQFSVEDINRIRVENPNSLLEQSVALLNLWVIREGQNANMDNLYTALQSIDRGEIVNMLE [E61D] | -0.1 ± 0.28
10 | MKMAVISEHLGLSWAELARELQFSVEDINRIRVENPNSLLEQSVALLNLWVIREGQNANMENLYKALQSIDRGEIVNMLE [T65K] | -0.055 ± 0.12
11 | MKMAVISEHLGSSWAELARELQFSVEDINRIRVENPNSLLEQSVALLNLWVIREGQNANMENLYTALQSIDRGEIVNMLE [L12S] | 0.243 ± 0.092
12 | MKMAVISEHLGLSWAELARELQFSVEDINRIRVENPNSLLEQSVALLNLWVIREGQNANMENLYTALQSIDRGEHVNMLE [I75H] | -0.594 ± 0.27
13 | MKMAVISEHLGLSWAELARELQFSVEDINRIRVENPNSLLEQSVALLNLWVIREGQNANMENLYTALQSIDRGECVNMLE [I75C] | -0.734 ± 0.23
14 | MKMAVISEHLGLSWAELARELQFSVEDINRIRVENPNSLLEQSVALLNLWVIREGQNQNMENLYTALQSIDRGEIVNMLE [A58Q] | -0.095 ± 0.14
15 | MKMAVISEHLGLSWAELARELQFSVEDINRIRVENPNSLLEQSVALLNLWVIREGQNPNMENLYTALQSIDRGEIVNMLE [A58P] | 0.195 ± 0.083
16 | MKMAVISEHLGLSWAELARELQFSVEDINRIRVENPNSLLEQSVALLNLQVIREGQNANMENLYTALQSIDRGEIVNMLE [W50Q] | -0.708 ± 0.39
17 | MKMAVISEHLGLSWAELARELQFSVEDINRIRVENPNSLCEQSVALLNLWVIREGQNANMENLYTALQSIDRGEIVNMLE [L40C] | -0.373 ± 0.097
18 | MKMAVISEHLGLSWAELARELQFSVEDINRIRVENPNSLVEQSVALLNLWVIREGQNANMENLYTALQSIDRGEIVNMLE [L40V] | 0.011 ± 0.052

Row | Variant | abundance fitness
19 | MKMAVISEHLGLSWAELARELQFSVEDINRIWVENPNSLLEQSVALLNLWVIREGQNANMENLYTALQSIDRGEIVNMLE [R32W] | -0.31 ± 0.45
20 | MKMAVISEHLGLSWAELARELQFSVEDINYIRVENPNSLLEQSVALLNLWVIREGQNANMENLYTALQSIDRGEIVNMLE [R30Y] | -0.298 ± 0.16
21 | MKMAVISEHLGLSWAELARELQFSVEDINRIRVENPNSLLEQSVNLLNLWVIREGQNANMENLYTALQSIDRGEIVNMLE [A45N] | -0.226 ± 0.18
22 | MKMAVISEHLGLSWAELARELQFSVEDINRIRVENPFSLLEQSVALLNLWVIREGQNANMENLYTALQSIDRGEIVNMLE [N37F] | -0.152 ± 0.23
23 | MKMAVISEHLGLSWAELARECQFSVEDINRIRVENPNSLLEQSVALLNLWVIREGQNANMENLYTALQSIDRGEIVNMLE [L21C] | -0.727 ± 0.33
24 | MKMAVISEHLGLSWAELARELQFSVEDINRIRCENPNSLLEQSVALLNLWVIREGQNANMENLYTALQSIDRGEIVNMLE [V33C] | 0.174 ± 0.12
25 | MKMAVISEHLGLSWAELARELQFSVEDINRIRVENPNSLLEQSVALLNLWVIREGQNANMENLYTALQSIDRGEIVNMQE [L79Q] | -0.115 ± 0.11
26 | MKMAVISEHLGLSWAELARELQFSVEDINRIRVENPNSLLEQSVALLNLWVIREGQNANMENLYTALQSIDRGEIVNMVE [L79V] | 0.132 ± 0.049
27 | MKMAVISEHLGLSWAELARELQFSVEDINRIRVENPNSLLEQSVALLNLWVIREGQNANMENLYTALQSIDRGFIVNMLE [E74F] | -0.741 ± 0.28
28 | MKMAVISEHLGLSWAELARELQFSVEDINRIRVENPNSLLEQSVALHNLWVIREGQNANMENLYTALQSIDRGEIVNMLE [L47H] | -0.503 ± 0.33
29 | MKMAVISEHLGLSWAELARELQFSVEDINRIRVENPNSLLEQSVALMNLWVIREGQNANMENLYTALQSIDRGEIVNMLE [L47M] | 0.061 ± 0.11
30 | MKMAVISEHLGLSWAELARELQFSVEDINRIRVENPNSLLEQSVALDNLWVIREGQNANMENLYTALQSIDRGEIVNMLE [L47D] | -0.743 ± 0.23
31 | MKPAVISEHLGLSWAELARELQFSVEDINRIRVENPNSLLEQSVALLNLWVIREGQNANMENLYTALQSIDRGEIVNMLE [M3P] | -0.474 ± 0.076
32 | MKMAVISEHLGLSWAELARELQFSVEDINRIRVENPNSLLEQSVALLNIWVIREGQNANMENLYTALQSIDRGEIVNMLE [L49I] | -0.058 ± 0.1
33 | MKMAVISEHLGLSWAELARELQFSVEDINRIRVENPNSLLEQSVALLNKWVIREGQNANMENLYTALQSIDRGEIVNMLE [L49K] | 0.047 ± 0.1
34 | MKMAVISEHLGLSWAELARELQFSVEDINRIRVENPNSLLEQSVALLNLWVIRKGQNANMENLYTALQSIDRGEIVNMLE [E54K] | -0.29 ± 0.12
35 | MKMAVISEHEGLSWAELARELQFSVEDINRIRVENPNSLLEQSVALLNLWVIREGQNANMENLYTALQSIDRGEIVNMLE [L10E] | -1.11 ± 0.41
